{"source": "paper doi:10.1101/2021.02.26.432832", "about": "(bioRxiv, 2021)", "molecular_target": "recombinant, reconstituted histone H3/H4 tetramers (Xenopus laevis, UniProt P84233;P62799)", "assay": "pull-down"}
{"binder": "GST-tagged full-length Ioc4 (natural protein) MSEAIFQPTDIVLAKVKGFSAWPAMIIPNELIPDNILKTKPVSVHKGKSGSDKKANEDIDADMESEARDREQSEEEEDIEDFGESEANPEKFIIYTPVLKFRKNDTLKSTYCVKFFCDDSYIWVKPMDMKILTSEDCRKWLSGKQRKNKKLIPAYEMAMRGKNGIDIWEFVEYGSYGKPDEEEYVEEEEEENEPEKKAIRPTRSSSRQRQKRASETEKSEGGNSNKRKRVTRSTRQQAIDASEEEEEEEEEKVQEAVRKRPQRTKTKKVVVSKTKPNPKTKAKKEKPKPPKPIKYHFEDDEDWSIVGLGPQDLSIEKTMDPIAKKLSQKKNLEKHVEIKLDLEDKLAGINKLLCDVLCSAINQAVSIKDDFEIILDELQIALDTRGSRNEFITIFQSNNSLLLNFRILFNLRKRELNKWDLWDRFQDIFKHIYSYQFIPDTEDWQLEQNMEIEEMDREKPSFSEDVKEEESKVGA", "values": [{"measurement": "binding result", "result": "binds"}]}
